# Data from patent US6455049B1, “Biologically active and particularly peptide molecules having a potentiating effect on growth hormone biological activity” (priority 1996, dated 2002).
# B1: bovine growth hormone (protein)
# chain: AFPAMSLSGLFANAVLRAQHLHQLAADTFKEFERTYIPEGQRYSIQNTQVAFCFSETIPAPTGKNEAQQKSDLELLRISLLLIQSWLGPLQFLSRVFTNSLVFGTSDRVYEKLKDLEEGILALMRELEDGTPRAGQILKQTYDKFDTNMRSDDALLKNYGLLSCFRKDLHKTETYLRVMKCRRFGEASCAF
# Test system: IGF-1
# Experiment: Plasma IGF-1 level in hypophysectomised female Wistar rats (radioimmunoassay)
# Assay type: in vivo
# Conditions: dose of 100 μg/rat
# Protocol: In vivo experiments performed in the context of the present invention were carried out on 19 batches of hypophysectomised female rats of the Wistar strain, each batch comprising 5 rats. These animals were hypophysectomized when 4 weeks old and then kept under observation for one week. During an additional week of observation, the animals were weighed and those having gained more than 5 grams […] were discarded. In fact, it was assumed that the hypophysectomy of these animals was incomplete. They are thus not suitable for use in the framework of the present experiments.
# Each animal selected receives a T4 thyroid hormone and cortisone replacement treatment. These hormones are administered subcutaneously each day at 50 μg/100 g body weight in the case of cortisone and 1 μg/100 g body weight in the case of T4. Usually a slight weight gain is observed following the injection of these hormones. This hormone supplementation treatment is administered for one week during which the animals continue to be weighed daily. These animals are from then on suitable for use in a comparative evaluation of the somatogenic activity of bGH incubated with or without different peptide constructions having the sequence 104-113 or the sequence 35-53 in the case of the GH peptide described in EP 284406. […]
molecule,measurement,setting,value
B1,IGF level relative to baseline levels in control hypophysectomized animals,,eight times higher than the baseline levels
same,mean IGF levels,hypophysectomized rats,60 ng/mL
